Measured values reported in the supplement of paper PMC10567573.

B1: FCHO1 (parent)
chain: FTSSPSPFSSSSPENVEDSGLDSP

Variants of: B1
Test: protein stability index of a GFP-peptide fusion (GPS, HEK-293T) (PSI 1-6); higher = more stable
Conditions: c terminus: a fixed tail appended
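Also: lentivirally expressed fusions sorted by FACS into six bins by GFP to DsRed ratio, PSI derived from sequencing read proportions per bin multiplied by bin number.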

Variant | protein stability index
FTSSPSPFSSLSPENVEDSGLDSP | 1.63
FTSSPSPFSSMSPENVEDSGLDSP | 1.76
FTSSPSPFSSNSPENVEDSGLDSP | 1.55
FTSSPSPFSSPSPENVEDSGLDSP | 1.86
FTSSPSPFSSQSPENVEDSGLDSP | 2.06
FTSSPSPFSSRSPENVEDSGLDSP | 2.01
FTSSPSPFSSTSPENVEDSGLDSP | 1.67
FTSSPSPFSSVSPENVEDSGLDSP | 1.77
FTSSPSPFSSWSPENVEDSGLDSP | 2.39
FTSSPSPFSSYSPENVEDSGLDSP | 2.25
FTSSPSPFSSSAPENVEDSGLDSP | 1.74
FTSSPSPFSSSCPENVEDSGLDSP | 2.46
FTSSPSPFSSSDPENVEDSGLDSP | 2.53
FTSSPSPFSSSEPENVEDSGLDSP | 1.7
FTSSPSPFSSSFPENVEDSGLDSP | 2.65
FTSSPSPFSSSGPENVEDSGLDSP | 2.36
FTSSPSPFSSSHPENVEDSGLDSP | 3.01
FTSSPSPFSSSIPENVEDSGLDSP | 2.12
FTSSPSPFSSSKPENVEDSGLDSP | 1.56
FTSSPSPFSSSLPENVEDSGLDSP | 2.27
FTSSPSPFSSSMPENVEDSGLDSP | 1.99
FTSSPSPFSSSNPENVEDSGLDSP | 2.37
FTSSPSPFSSSPPENVEDSGLDSP | 2.25
FTSSPSPFSSSQPENVEDSGLDSP | 2.26

Variant | protein stability index
FTSSPSPFSSSRPENVEDSGLDSP | 1.56
FTSSPSPFSSSTPENVEDSGLDSP | 2.01
FTSSPSPFSSSVPENVEDSGLDSP | 2.56
FTSSPSPFSSSWPENVEDSGLDSP | 1.98
FTSSPSPFSSSYPENVEDSGLDSP | 1.75
FTSSPSPFSSSSAENVEDSGLDSP | 1.77
FTSSPSPFSSSSCENVEDSGLDSP | 1.53
FTSSPSPFSSSSDENVEDSGLDSP | 2.1
FTSSPSPFSSSSEENVEDSGLDSP | 2.44
FTSSPSPFSSSSFENVEDSGLDSP | 2.49
FTSSPSPFSSSSGENVEDSGLDSP | 1.93
FTSSPSPFSSSSHENVEDSGLDSP | 2.29
FTSSPSPFSSSSIENVEDSGLDSP | 2.05
FTSSPSPFSSSSKENVEDSGLDSP | 2.14
FTSSPSPFSSSSLENVEDSGLDSP | 2.21
FTSSPSPFSSSSMENVEDSGLDSP | 1.58
FTSSPSPFSSSSNENVEDSGLDSP | 1.66
FTSSPSPFSSSSQENVEDSGLDSP | 2.39
FTSSPSPFSSSSRENVEDSGLDSP | 1.85
FTSSPSPFSSSSSENVEDSGLDSP | 2.13
FTSSPSPFSSSSTENVEDSGLDSP | 1.77
FTSSPSPFSSSSVENVEDSGLDSP | 2.28
FTSSPSPFSSSSWENVEDSGLDSP | 1.83
FTSSPSPFSSSSYENVEDSGLDSP | 2.04

Variant | protein stability index
FTSSPSPFSSSSPANVEDSGLDSP | 1.96
FTSSPSPFSSSSPCNVEDSGLDSP | 1.69
FTSSPSPFSSSSPDNVEDSGLDSP | 2.4
FTSSPSPFSSSSPFNVEDSGLDSP | 1.64
FTSSPSPFSSSSPGNVEDSGLDSP | 1.92
FTSSPSPFSSSSPHNVEDSGLDSP | 1.95
FTSSPSPFSSSSPINVEDSGLDSP | 1.9
FTSSPSPFSSSSPKNVEDSGLDSP | 2.1
FTSSPSPFSSSSPLNVEDSGLDSP | 2.22
FTSSPSPFSSSSPMNVEDSGLDSP | 2.05
FTSSPSPFSSSSPNNVEDSGLDSP | 2.14
FTSSPSPFSSSSPPNVEDSGLDSP | 1.94
FTSSPSPFSSSSPQNVEDSGLDSP | 2.31
FTSSPSPFSSSSPRNVEDSGLDSP | 1.61
FTSSPSPFSSSSPSNVEDSGLDSP | 2.17
FTSSPSPFSSSSPTNVEDSGLDSP | 1.84
FTSSPSPFSSSSPVNVEDSGLDSP | 2.15
FTSSPSPFSSSSPWNVEDSGLDSP | 2.78
FTSSPSPFSSSSPYNVEDSGLDSP | 1.72
FTSSPSPFSSSSPEAVEDSGLDSP | 2.13
FTSSPSPFSSSSPECVEDSGLDSP | 2.24
FTSSPSPFSSSSPEDVEDSGLDSP | 2.25
FTSSPSPFSSSSPEEVEDSGLDSP | 1.82
FTSSPSPFSSSSPEFVEDSGLDSP | 1.73

Variant | protein stability index
FTSSPSPFSSSSPEGVEDSGLDSP | 1.64
FTSSPSPFSSSSPEHVEDSGLDSP | 1.66
FTSSPSPFSSSSPEIVEDSGLDSP | 2.05
FTSSPSPFSSSSPEKVEDSGLDSP | 1.43
FTSSPSPFSSSSPELVEDSGLDSP | 2.01
FTSSPSPFSSSSPEMVEDSGLDSP | 2.57
FTSSPSPFSSSSPEPVEDSGLDSP | 2.95
FTSSPSPFSSSSPEQVEDSGLDSP | 1.81
FTSSPSPFSSSSPERVEDSGLDSP | 1.71
FTSSPSPFSSSSPESVEDSGLDSP | 2.33
FTSSPSPFSSSSPETVEDSGLDSP | 2.04
FTSSPSPFSSSSPEVVEDSGLDSP | 2.46
FTSSPSPFSSSSPEWVEDSGLDSP | 2.39
FTSSPSPFSSSSPEYVEDSGLDSP | 1.6
FTSSPSPFSSSSPENAEDSGLDSP | 2.47
FTSSPSPFSSSSPENCEDSGLDSP | 2.44
FTSSPSPFSSSSPENDEDSGLDSP | 2.39
FTSSPSPFSSSSPENEEDSGLDSP | 1.81
FTSSPSPFSSSSPENFEDSGLDSP | 1.75
FTSSPSPFSSSSPENGEDSGLDSP | 2.75
FTSSPSPFSSSSPENHEDSGLDSP | 2.27
FTSSPSPFSSSSPENIEDSGLDSP | 2.25
